T1: ShPPase (Family II inorganic pyrophosphatase from Shewanella sp. AS-11) (Shewanella sp. AS-11, UniProt L8AXY8)
T1 construct: gene ppia; recombinant from pET16b in E. coli BL21(DE3); purified as previously described
T1 sequence (L8AXY8 2-308): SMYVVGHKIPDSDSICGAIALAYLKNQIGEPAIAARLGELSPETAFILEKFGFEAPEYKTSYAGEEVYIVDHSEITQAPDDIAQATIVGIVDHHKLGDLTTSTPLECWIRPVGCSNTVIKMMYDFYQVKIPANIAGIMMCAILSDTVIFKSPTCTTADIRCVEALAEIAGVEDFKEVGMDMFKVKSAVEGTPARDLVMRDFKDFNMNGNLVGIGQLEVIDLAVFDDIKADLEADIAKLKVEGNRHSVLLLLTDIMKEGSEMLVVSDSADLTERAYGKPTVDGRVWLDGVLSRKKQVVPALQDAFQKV


Experiments:
[1] = target: T1, ShPPase (Family II inorganic pyrophosphatase from Shewanella sp. AS-11); experiment: Zn K-edge XANES / EXAFS; format: binding; conditions: Zn2+-ShPPase 1.1 mM, 0.1 M PNP, 0.1 M MgCl2, pH 7.5; active site, trinuclear metal center
[2] = substrate: O=P(O)(O)OP(=O)(O)O; experiment: molybdenum blue phosphate release; format: biochemical, Shewanella sp. AS-11; conditions: Zn2+-activated enzyme, 5 mM MgCl2, 50 mM KCl, 100 mM Tris-HCl pH 7.5, 25 °C
Text: molybdenum blue phosphate release on ShPPase (Family II inorganic pyrophosphatase from Shewanella sp. AS-11)

[3] = primers for D14N and D14A appear exchanged

Row | Molecule | Zn K-edge XANES / EXAFS [1] | Km [2] [µM] | kcat [2] [s⁻¹] | kcat/Km [2] [M⁻¹ s⁻¹] | Km [2, 3] [µM] | kcat [2, 3] [s⁻¹] | kcat/Km [2, 3] [M⁻¹ s⁻¹]
1 | O=P(O)(O)NP(=O)(O)O [PNP, imidodiphosphate] | Zn²⁺ ions are predominantly five-coordinate in the substrate-free form, but transition to six-coordinate upon PNP binding | – | – | – | – | – | –
2 | ShPPase (Family II inorganic pyrophosphatase from Shewanella sp. AS-11) (Shewanella sp. AS-11) (protein, recombinant from pET16b in E. coli BL21(DE3); purified as previously described) SMYVVGHKIPDSDSICGAIALAYLKNQIGEPAIAARLGELSPETAFILEKFGFEAPEYKTSYAGEEVYIVDHSEITQAPDDIAQATIVGIVDHHKLGDLTTSTPLECWIRPVGCSNTVIKMMYDFYQVKIPANIAGIMMCAILSDTVIFKSPTCTTADIRCVEALAEIAGVEDFKEVGMDMFKVKSAVEGTPARDLVMRDFKDFNMNGNLVGIGQLEVIDLAVFDDIKADLEADIAKLKVEGNRHSVLLLLTDIMKEGSEMLVVSDSADLTERAYGKPTVDGRVWLDGVLSRKKQVVPALQDAFQKV | – | 79 ± 18 | 99.8 ± 5.5 | 1.26e+06 | – | – | –
3 | ShPPase (Family II inorganic pyrophosphatase from Shewanella sp. AS-11) (Shewanella sp. AS-11; D14A) (protein, recombinant from pET16b in E. coli BL21(DE3); purified as previously described) SMYVVGHKIPDSASICGAIALAYLKNQIGEPAIAARLGELSPETAFILEKFGFEAPEYKTSYAGEEVYIVDHSEITQAPDDIAQATIVGIVDHHKLGDLTTSTPLECWIRPVGCSNTVIKMMYDFYQVKIPANIAGIMMCAILSDTVIFKSPTCTTADIRCVEALAEIAGVEDFKEVGMDMFKVKSAVEGTPARDLVMRDFKDFNMNGNLVGIGQLEVIDLAVFDDIKADLEADIAKLKVEGNRHSVLLLLTDIMKEGSEMLVVSDSADLTERAYGKPTVDGRVWLDGVLSRKKQVVPALQDAFQKV | – | 179 ± 37 | 0.019 ± 0.001 | 110 | – | – | –
4 | ShPPase (Family II inorganic pyrophosphatase from Shewanella sp. AS-11) (Shewanella sp. AS-11; D14N) (protein, recombinant from pET16b in E. coli BL21(DE3); purified as previously described) SMYVVGHKIPDSNSICGAIALAYLKNQIGEPAIAARLGELSPETAFILEKFGFEAPEYKTSYAGEEVYIVDHSEITQAPDDIAQATIVGIVDHHKLGDLTTSTPLECWIRPVGCSNTVIKMMYDFYQVKIPANIAGIMMCAILSDTVIFKSPTCTTADIRCVEALAEIAGVEDFKEVGMDMFKVKSAVEGTPARDLVMRDFKDFNMNGNLVGIGQLEVIDLAVFDDIKADLEADIAKLKVEGNRHSVLLLLTDIMKEGSEMLVVSDSADLTERAYGKPTVDGRVWLDGVLSRKKQVVPALQDAFQKV | – | – | – | – | 100 ± 20 | 0.034 ± 0.002 | 340

From PMC13219714, “μ₃-Oxo nucleophile formation enables efficient SN2 hydrolysis at the trinuclear metal center in inorganic pyrophosphatase” (Communications Chemistry, 2026)
